The record followed here is US20220119507A1 (OHEALTH BIOPHARMACEUTICAL SUZHOU, published 2022).

Experiment [1] deals with PTX3 recombinant protein (undenatured amino acid sequence listed as SEQ ID NO:14) (human, UniProt P26022 19-381). The experiment in a line: ELISA, PTX3 (SEQ ID NO:14) coated at 10 ug/mL, antibody 0.01 to 1000 ng/mL (FIG. 2). How it is done:
Firstly, 10 μg/mL of PTX3 recombinant protein (representing a undenatured amino acid sequence listed as SEQ ID NO:14, dissolved in pH 7.2 PBS) was coated onto each well of a 96-well cell culture plate (Product No. 9018, Corning Costar), and reacted at 4° C. overnight. Next, the blocking solution (containing 3% BSA in PBS) was added into wells, and blocked for 1 hour under room temperature (i.e. 4° C. to 40° C.). After removing the blocking solution, each well was rinsed with PBS, and then reacted with a primary antibody for 1 hour under room temperature (i.e. 4° C. to 40° C.), in which the primary antibody was PTX3 mAb of EXAMPLE 1 serially diluted in a concentration range of 0.01 ng/mL to 1000 ng/mL. And then, each well was rinsed several times with PBST (i.e. PBS with Tween 20) for removing unconjugated PTX3 mAb, and reacted with secondary antibody under room temperature (i.e. 4° C. to 40° C.), in which the secondary antibody was anti-mouse IgG-HRP. Afterward, TMB was added into each well for reaction over a time period, and then added with 0.1 M of H₂SO₄ solution for 10 minutes to stop the reaction. Subsequently, the absorbance at 450 nm of each well was measured by commercially available ELISA reader, and the results were shown in FIG. 2. Each value was obtained in quadruplicate. […]

For experiment [2], the target named is T1, fragment of PTX3 recombinant protein listed as SEQ ID NO:7 (human).
T1 peptide: VLNKTILFS
As to the kind of experiment: hybridoma screening.

Experiment [3] deals with T2, fragment of PTX3 recombinant protein listed as SEQ ID NO:8 (human).
T2 peptide: KTILFSYGT
As to the kind of experiment: hybridoma screening.

The target of experiment [4] is T3, amino acid sequence listed as SEQ ID NO:11 (203th to 217th amino acid residues of PTX3 recombinant protein) (human).
T3 peptide: RLESFSACIWVKATD
The experiment in a line: hybridoma screening.

Experiment [5] concerns the target T4, RI37, fragment of PTX3 recombinant protein listed as SEQ ID NO:12 (200th to 236th amino acid residues) (human).
T4 peptide: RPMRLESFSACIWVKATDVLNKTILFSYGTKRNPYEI
As to the kind of experiment: hybridoma screening.

For experiment [6], the target named is T5, fragment of PTX3 recombinant protein listed as SEQ ID NO:6 (human).
T5 peptide: ATDVLNKTI
The experiment in a line: hybridoma screening.

The target in experiment [7] is T6, fragment of PTX3 recombinant protein listed as SEQ ID NO:9 (human).
T6 peptide: LFSYGTKRN
The experiment in a line: hybridoma screening.

For experiment [8], the target named is T7, fragment of PTX3 recombinant protein listed as SEQ ID NO:2 (human).
T7 peptide: RLESFSACI
The experiment in a line: hybridoma screening.

The target of experiment [9] is T8, fragment of PTX3 recombinant protein listed as SEQ ID NO:10 (human).
T8 peptide: YGTKRNPYEI
As to the kind of experiment: hybridoma screening.

The target in experiment [10] is T9, fragment of PTX3 recombinant protein listed as SEQ ID NO:1 (human).
T9 peptide: RPMRLESFS
The experiment in a line: hybridoma screening.

In experiment [11] the target is T10, fragment of PTX3 recombinant protein listed as SEQ ID NO:4 (human).
T10 peptide: ACIWVKATD
The experiment in a line: ELISA on coated fragments SEQ ID NOs:1 to 10 (FIG. 4). For orientation: An ELISA detects its analyte on a solid surface through an enzyme-linked reagent.

The target in experiment [12] is T11, fragment of PTX3 recombinant protein listed as SEQ ID NO:5 (human).
T11 peptide: WVKATDVLN
Described as above.

Experiment [13] concerns the target T12, fragment of PTX3 recombinant protein listed as SEQ ID NO:3 (human).
T12 peptide: SFSACIWVK
The experiment is described as above.

PTX3 recombinant protein (undenatured amino acid sequence listed as SEQ ID NO:14), sequence (P26022 19-381 limits assumed): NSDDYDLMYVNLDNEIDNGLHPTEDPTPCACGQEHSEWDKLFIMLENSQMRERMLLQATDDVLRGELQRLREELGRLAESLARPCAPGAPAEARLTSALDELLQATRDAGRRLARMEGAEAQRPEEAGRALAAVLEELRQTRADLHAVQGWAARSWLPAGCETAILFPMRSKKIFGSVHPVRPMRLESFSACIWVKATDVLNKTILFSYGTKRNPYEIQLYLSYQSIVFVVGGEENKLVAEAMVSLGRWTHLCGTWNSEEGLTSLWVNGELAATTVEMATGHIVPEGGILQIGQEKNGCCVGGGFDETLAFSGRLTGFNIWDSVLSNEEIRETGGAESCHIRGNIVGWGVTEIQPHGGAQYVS

B1: PTX3 monoclonal antibody of EXAMPLE 1 (antibody, V domains shown)
VH: EVQLQQSGAELVKPGASVKLSCTASDFNIKHTYLHWVLQRPEQGLEWIGRIDPANGDTKYDPKFQGKATITADTSSNTAYLHLSSLTSEDTAVYYCARVTTVVGFDYWGQGTTLTVSS
VL: QIVLTQSPAIMSTSLGERVTMTCTASSSVISTYLNWYQQKPGSSPKLWIYSTSNLASGVPARFSGSGSGTSYSLTISSMEAEDAATYFCHQFQRSPLTFGAGTKLELKR
notes: also called PTX3 mAb
Take B1: the Kd in experiment [1] turned out to be 0.085 nM. The binding result in experiment [2], in experiment [3], in experiment [4], in [5], in [6] and in experiment [7] was “binds” throughout. Further, the binding result in experiment [8], in [9], in experiment [10], in experiment [11], in experiment [12] and in experiment [13] was “binds” throughout.

One may read the Kd as the free concentration of one partner at which half of the binding sites on the other are occupied at equilibrium, for simple one-to-one binding.
